The values below come from publication PMC3477590.

Assay [1] concerns the target cellular RBX1 (Fig. S7) (human) (UniProt P62877).
A further assay has as its target CFP-RBX1^RING (human) (UniProt P62877). The experiment in a line: FRET or BRET. On the technique in general: Bioluminescence resonance energy transfer reports proximity on the nanometre scale.
Assay [2] concerns the target CFP-RBX1-CUL1^CTD (human) (UniProt P62877). The experiment in a line: FRET or BRET.
The target in another assay is CFP-RBX1-CUL1^CTD~NEDD8 (UniProt P62877). The experiment in a line: FRET or BRET.
Chain of CFP-RBX1-CUL1^CTD~NEDD8 (P62877 whole entry, chain 1 of 3): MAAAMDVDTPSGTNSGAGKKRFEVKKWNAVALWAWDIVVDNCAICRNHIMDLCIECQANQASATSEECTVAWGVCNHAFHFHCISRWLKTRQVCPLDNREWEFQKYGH
Chain of CFP-RBX1-CUL1^CTD~NEDD8 (Q13616 411-776, chain 2 of 3, further chain): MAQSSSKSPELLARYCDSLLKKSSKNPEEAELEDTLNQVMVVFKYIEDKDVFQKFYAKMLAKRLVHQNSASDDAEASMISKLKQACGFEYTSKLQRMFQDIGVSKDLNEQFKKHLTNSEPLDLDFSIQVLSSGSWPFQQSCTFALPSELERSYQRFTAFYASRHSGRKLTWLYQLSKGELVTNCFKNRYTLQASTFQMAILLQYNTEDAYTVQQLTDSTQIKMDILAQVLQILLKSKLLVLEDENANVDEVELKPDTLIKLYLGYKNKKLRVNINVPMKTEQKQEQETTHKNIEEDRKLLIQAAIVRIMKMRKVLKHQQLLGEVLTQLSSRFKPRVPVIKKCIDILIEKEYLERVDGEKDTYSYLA
Chain of CFP-RBX1-CUL1^CTD~NEDD8 (Q15843 1-76, chain 3 of 3, further chain): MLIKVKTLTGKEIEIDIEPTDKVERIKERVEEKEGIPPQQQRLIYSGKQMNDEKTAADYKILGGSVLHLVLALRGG

Chain of GLMN-YFP (Q92990 whole entry): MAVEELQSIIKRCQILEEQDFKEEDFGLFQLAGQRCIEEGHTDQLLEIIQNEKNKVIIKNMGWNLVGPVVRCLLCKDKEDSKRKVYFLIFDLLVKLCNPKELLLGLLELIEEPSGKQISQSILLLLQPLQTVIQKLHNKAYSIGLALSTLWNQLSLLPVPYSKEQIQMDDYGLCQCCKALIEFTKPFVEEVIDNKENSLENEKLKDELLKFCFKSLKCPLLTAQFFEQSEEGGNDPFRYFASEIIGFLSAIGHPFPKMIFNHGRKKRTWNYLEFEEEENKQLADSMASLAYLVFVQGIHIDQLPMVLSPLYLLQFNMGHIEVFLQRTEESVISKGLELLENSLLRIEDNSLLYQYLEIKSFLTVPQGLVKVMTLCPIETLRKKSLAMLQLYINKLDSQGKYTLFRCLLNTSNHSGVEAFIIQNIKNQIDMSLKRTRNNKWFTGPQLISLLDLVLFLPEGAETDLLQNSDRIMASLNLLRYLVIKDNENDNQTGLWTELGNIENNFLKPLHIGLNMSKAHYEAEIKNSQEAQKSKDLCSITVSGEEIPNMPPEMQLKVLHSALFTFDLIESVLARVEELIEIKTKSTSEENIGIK
Chain of cellular RBX1 (Fig. S7) (human) (P62877 whole entry): as the sequence (P62877 whole entry, chain 1 of 3) above
Chain of CFP-RBX1^RING (human) (P62877 whole entry): as the sequence (P62877 whole entry, chain 1 of 3) above
Chain of CFP-RBX1-CUL1^CTD (human) (P62877 whole entry, chain 1 of 2): as the sequence (P62877 whole entry, chain 1 of 3) above
Chain of CFP-RBX1-CUL1^CTD (human) (Q13616 411-776, chain 2 of 2, further chain): as the sequence (Q13616 411-776, chain 2 of 3, further chain) above
Chain of GLMN in cells (Fig. S7) (Q92990 whole entry): as the sequence (Q92990 whole entry) above

As for “GLMN in cells (Fig. S7) (from UniProt Q92990 1-594) (natural protein)”, the percent of cellular RBX1 bound by GLMN in assay [1] worked out at 7 percent.

The term Kd denotes the constant that tells how readily two partners part at equilibrium. A lower Kd goes with a tighter complex. Take “GLMN-YFP (from UniProt Q92990 1-594) (natural protein)”: the dissociation constant (Kd) with CFP-RBX1^RING (human) is 45 nM; in assay [2] it was 36 nM; with CFP-RBX1-CUL1^CTD~NEDD8, 28 nM.
